Measured values as given in publication PMC2724299 (Nucleic Acids Research, 2009).

Target: the molecule itself
Experiment: SEC

B1: PAE-EndA linker variant LPEI (6×His-PAE0789 fused through -Leu-Pro-Glu-Ile- to PAE2269) (enzyme, Pyrobaculum aerophilum)
chain: MDVLQEQVFKDLKSRGFKIIEQLDDKIFIAEKKERYLFYVMVEGVEVTIQTLLSVINMGETLSMPVVLALVSNDGTVTYYYVRKIRLPRNIYAEAVLPEIMIGYLRGLAVIVEDVEFARRLYKEGFYGRFLGYDKVKRDEVEKINAPLILGLYEALYLAEKGRLKVMGEDGREVAPEELAALGRERMRNFDEIYKIYKYFRDLGYVVKSGLKFGALFSVYEKGPGIDHAPMVVVFLEPDKGISATDITRGGRLSHSVRKTWTLATVLRQTGEVVLLGFGWARL
- stoichiometry N: 2
